Data as given in publication PMC7582951.

Molecular target: C0-C1-C2 region of the glutamate NMDAR NR1 subunit (mouse) (UniProt P35438)
Experiment: pull-down; competition: 0.2 uM CaM with NR1 C0-C1-C2 covalently attached to NHS-activated Sepharose, 2.5 mM CaCl2, increasing concentrations of σ1R WT or E102Q; bound CaM and σ1R by western blot

Chain of UniProt P35438 (P35438 834-938): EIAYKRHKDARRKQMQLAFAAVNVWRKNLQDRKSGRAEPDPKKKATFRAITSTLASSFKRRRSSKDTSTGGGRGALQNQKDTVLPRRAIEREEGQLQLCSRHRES

| Substance | concentration that prevented the binding of 200 nM CaM to NR1 | concentration that abolished the binding of 200 nM CaM to NR1 |
| --- | --- | --- |
| sigma receptor type 1 (σ1R) E102Q mutant (from UniProt O55242 1-223) (natural protein) | < 0.2 nM |  |
| sigma receptor type 1 (σ1R), wild-type (from UniProt O55242 1-223) (natural protein) |  | 60 nM |
